In PMC9814837, “Design of a gold clustering site in an engineered apo-ferritin cage” (Communications Chemistry, 2022):

Biological target: the molecule itself
Experiment: crystal structure; hanging-drop vapor diffusion, 0.5-1 M (NH4)2SO4 and 10-20 mM CdSO4, 20 °C; data at 100 K; space group F432, cage rebuilt by symmetry; apo protein and composites after reaction with 10-400 equiv. Au(I) precursor

B1: apo-R168H/L169C-rHLFr (recombinant L-chain ferritin from horse liver, R168H/L169C mutant) (natural protein, UniProt P02791 1-175, looked up)
chain: MSSQIRQNYSTEVEAAVNRLVNLYLRASYTYLSLGFYFDRDDVALEGVCHFFRELAEEKREGAERLLKMQNQRGGRALFQDLQKPSQDEWGTTLDAMKAAIVLEKSLNQALLDLHALGSAQADPHLCDFLESHFLDEEVKLIKKMGDHLTNIQRLVGSQAGLGEYLFEHCTLKHD
notes: ferritin L-chain, horse liver, recombinant (rHLFr); last residue named is Asp174; Crystallised apo and after reaction with 10-400 equiv. of chloro(dimethylsulfide)gold(I); also called Au(10 equiv.)-apo-R168H/L169C-rHLFr; Au(50 equiv.)-apo-R168H/L169C-rHLFr; source: E. coli (NovaBlue, vector pMK2), purified (heat treatment, Q Sepharose, S-300); copies: 24
binding result: binds
